From the supplement of paper PMC5998384

Columns and labels:
HeLa Kyoto [1] = assay: solubility in G1/S (NP-40 vs SDS abundance) (log2 ratio); higher = more soluble; conditions: cell cycle stage: G1/S
HeLa Kyoto [2] = assay: melting temperature (median over replicates), in situ; higher = more thermally stable
HeLa Kyoto [3] = assay: solubility change mitosis vs G1/S (difference of NP-40 vs SDS log2 ratios) (log2 ratio difference); higher = more soluble in mitosis
HeLa Kyoto [4] = assay: thermal stability score vs G1/S (z-score of summed log2 fold changes over temperatures); higher = more thermally stable than in G1/S
[5] = cell cycle stage: early G1 (4.5 h after nocodazole release)
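Wherever melting temperature (median over replicates), in situ is given: HeLa Kyoto cells synchronized by double thymidine or nocodazole block, proteins quantified by TMT10plex mass spectrometry, three independent biological replicates.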
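Wherever solubility change mitosis vs G1/S (difference of NP-40 vs SDS log2 ratios) is given: synchronized HeLa Kyoto cells (double thymidine block for G1/S, nocodazole release for mitosis), protein amounts in NP-40 versus SDS lysates quantified by mass spectrometry, three biological replicates.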
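Wherever solubility in G1/S (NP-40 vs SDS abundance) is given: HeLa Kyoto cells arrested at G1/S by double thymidine block, proteins quantified by TMT10plex mass spectrometry in mild NP-40 versus SDS extracts, three biological replicates.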
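Wherever thermal stability score vs G1/S (z-score of summed log2 fold changes over temperatures) is given: synchronized HeLa Kyoto cells, proteins quantified by TMT10plex mass spectrometry, three biological replicates, mitosis taken 0.5 h after nocodazole release, G1/S directly after double thymidine block.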

Sequence of AKAP8 (chain, as listed by the source): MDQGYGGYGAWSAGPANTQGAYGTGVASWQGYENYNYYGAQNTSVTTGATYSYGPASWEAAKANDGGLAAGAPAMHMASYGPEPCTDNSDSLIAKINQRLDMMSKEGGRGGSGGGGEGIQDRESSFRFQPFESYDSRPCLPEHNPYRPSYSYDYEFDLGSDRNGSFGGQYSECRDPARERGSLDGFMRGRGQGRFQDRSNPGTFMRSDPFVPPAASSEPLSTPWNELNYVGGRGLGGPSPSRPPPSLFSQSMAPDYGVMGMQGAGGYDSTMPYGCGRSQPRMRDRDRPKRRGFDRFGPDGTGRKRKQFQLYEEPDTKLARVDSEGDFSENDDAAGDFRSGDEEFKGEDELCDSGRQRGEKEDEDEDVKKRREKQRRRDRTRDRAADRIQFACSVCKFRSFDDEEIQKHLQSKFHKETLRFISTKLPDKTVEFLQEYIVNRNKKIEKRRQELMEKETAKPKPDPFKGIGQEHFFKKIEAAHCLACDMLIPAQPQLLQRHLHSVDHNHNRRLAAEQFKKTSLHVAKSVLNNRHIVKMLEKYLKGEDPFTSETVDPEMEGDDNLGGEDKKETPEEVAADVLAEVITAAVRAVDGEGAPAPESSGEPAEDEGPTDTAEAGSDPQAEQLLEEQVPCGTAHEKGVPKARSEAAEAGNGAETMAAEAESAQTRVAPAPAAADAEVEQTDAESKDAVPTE
Sequence of OCRL (chain, as listed by the source): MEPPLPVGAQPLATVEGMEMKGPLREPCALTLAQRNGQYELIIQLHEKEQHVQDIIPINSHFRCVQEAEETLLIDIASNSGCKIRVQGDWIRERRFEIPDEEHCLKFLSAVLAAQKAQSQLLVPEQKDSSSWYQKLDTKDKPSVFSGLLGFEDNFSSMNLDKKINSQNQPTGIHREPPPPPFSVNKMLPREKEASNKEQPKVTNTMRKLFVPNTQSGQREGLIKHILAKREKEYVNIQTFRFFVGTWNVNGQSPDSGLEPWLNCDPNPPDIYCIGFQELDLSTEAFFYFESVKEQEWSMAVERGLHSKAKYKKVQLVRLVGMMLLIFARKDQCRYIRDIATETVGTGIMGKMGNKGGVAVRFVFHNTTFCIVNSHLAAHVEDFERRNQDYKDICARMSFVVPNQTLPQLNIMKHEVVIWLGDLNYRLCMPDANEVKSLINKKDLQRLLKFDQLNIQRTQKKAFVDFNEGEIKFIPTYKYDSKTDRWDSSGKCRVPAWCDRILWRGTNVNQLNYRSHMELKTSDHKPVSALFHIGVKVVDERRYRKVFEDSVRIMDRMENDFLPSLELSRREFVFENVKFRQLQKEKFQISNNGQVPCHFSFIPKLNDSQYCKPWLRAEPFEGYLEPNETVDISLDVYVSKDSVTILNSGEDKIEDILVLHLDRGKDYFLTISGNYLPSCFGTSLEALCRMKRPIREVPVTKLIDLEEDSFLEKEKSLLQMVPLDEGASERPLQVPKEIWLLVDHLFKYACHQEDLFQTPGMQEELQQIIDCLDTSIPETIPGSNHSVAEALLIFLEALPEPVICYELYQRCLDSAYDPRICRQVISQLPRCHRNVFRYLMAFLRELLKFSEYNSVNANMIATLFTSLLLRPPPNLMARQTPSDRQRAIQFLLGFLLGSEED
Sequence of CTSD (chain, as listed by the source): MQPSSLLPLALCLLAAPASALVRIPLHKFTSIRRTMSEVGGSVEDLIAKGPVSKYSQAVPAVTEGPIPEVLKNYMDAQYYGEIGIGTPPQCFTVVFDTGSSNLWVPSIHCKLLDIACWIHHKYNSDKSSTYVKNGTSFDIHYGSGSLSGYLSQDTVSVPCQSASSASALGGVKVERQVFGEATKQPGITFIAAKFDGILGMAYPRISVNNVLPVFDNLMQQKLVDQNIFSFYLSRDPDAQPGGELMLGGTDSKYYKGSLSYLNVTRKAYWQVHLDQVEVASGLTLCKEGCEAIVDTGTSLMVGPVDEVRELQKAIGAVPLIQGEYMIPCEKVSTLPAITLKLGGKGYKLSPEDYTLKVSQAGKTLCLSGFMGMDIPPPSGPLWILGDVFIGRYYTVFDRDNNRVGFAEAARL

Substance | solubility in G1/S (log2) (HeLa Kyoto [1]) | melting temperature (HeLa Kyoto [2]; cell cycle stage: G1/S) [°C] | melting temperature (HeLa Kyoto [2]; cell cycle stage: mitosis) [°C] | solubility change mitosis (log2) (HeLa Kyoto [3]) | thermal stability score (HeLa Kyoto [4]; [5]) | thermal stability score (HeLa Kyoto [4]; cell cycle stage: mitosis)
MSDSWVPNSASGQDPGGRRRAWAELLAGRVKREKYNPERAQKLKESAVRLLRSHQDLNALLLEVEGPLCKKLSLSKVIDCDSSEAYANHSSSFIGSALQDQASRLGVPVGILSAGMVASSVGQICTAPAETSHPVLLTVEQRKKLSSLLEFAQYLLAHSMFSRLSFCQELWKIQSSLLLEAVWHLHVQGIVSLQELLESHPDMHAVGSWLFRNLCCLCEQMEASCQHADVARAMLSDFVQMFVLRGFQKNSDLRRTVEPEKMPQVTVDVLQRMLIFALDALAAGVQEESSTHKIVRCWFGVFSGHTLGSVISTDPLKRFFSHTLTQILTHSPVLKASDAVQMQREWSFARTHPLLTSLYRRLFVMLSAEELVGHLQEVLETQEVHWQRVLSFVSALVVCFPEAQQLLEDWVARLMAQAFESCQLDSMVTAFLVVRQAALEGPSAFLSYADWFKASFGSTRGYHGCSKKALVFLFTFLSELVPFESPRYLQVHILHPPLVPGKYRSLLTDYISLAKTRLADLKVSIENMGLYEDLSSAGDITEPHSQALQDVEKAIMVFEHTGNIPVTVMEASIFRRPYYVSHFLPALLTPRVLPKVPDSRVAFIESLKRADKIPPSLYSTYCQACSAAEEKPEDAALGVRAEPNSAEEPLGQLTAALGELRASMTDPSQRDVISAQVAVISERLRAVLGHNEDDSSVEISKIQLSINTPRLEPREHMAVDLLLTSFCQNLMAASSVAPPERQGPWAALFVRTMCGRVLPAVLTRLCQLLRHQGPSLSAPHVLGLAALAVHLGESRSALPEVDVGPPAPGAGLPVPALFDSLLTCRTRDSLFFCLKFCTAAISYSLCKFSSQSRDTLCSCLSPGLIKKFQFLMFRLFSEARQPLSEEDVASLSWRPLHLPSADWQRAALSLWTHRTFREVLKEEDVHLTYQDWLHLELEIQPEADALSDTERQDFHQWAIHEHFLPESSASGGCDGDLQAACTILVNALMDFHQSSRSYDHSENSDLVFGGRTGNEDIISRLQEMVADLELQQDLIVPLGHTPSQEHFLFEIFRRRLQALTSGWSVAASLQRQRELLMYKRILLRLPSSVLCGSSFQAEQPITARCEQFFHLVNSEMRNFCSHGGALTQDITAHFFRGLLNACLRSRDPSLMVDFILAKCQTKCPLILTSALVWWPSLEPVLLCRWRRHCQSPLPRELQKLQEGRQFASDFLSPEAASPAPNPDWLSAAALHFAIQQVREENIRKQLKKLDCEREELLVFLFFFSLMGLLSSHLTSNSTTDLPKAFHVCAAILECLEKRKISWLALFQLTESDLRLGRLLLRVAPDQHTRLLPFAFYSLLSYFHEDAAIREEAFLHVAVDMYLKLVQLFVAGDTSTVSPPAGRSLELKGQGNPVELITKARLFLLQLIPRCPKKSFSHVAELLADRGDCDPEVSAALQSRQQAAPDADLSQEPHLF [FANCA] | -0.182 | 47.9 | 48.3 | 0.00288 | 0.523 | 1.07
MDVRRLKVNELREELQRRGLDTRGLKAELAERLQAALEAEEPDDERELDADDEPGRPGHINEEVETEGGSELEGTAQPPPPGLQPHAEPGGYSGPDGHYAMDNITRQNQFYDTQVIKQENESGYERRPLEMEQQQAYRPEMKTEMKQGAPTSFLPPEASQLKPDRQQFQSRKRPYEENRGRGYFEHREDRRGRSPQPPAEEDEDDFDDTLVAIDTYNCDLHFKVARDRSSGYPLTIEGFAYLWSGARASYGVRRGRVCFEMKINEEISVKHLPSTEPDPHVVRIGWSLDSCSTQLGEEPFSYGYGGTGKKSTNSRFENYGDKFAENDVIGCFADFECGNDVELSFTKNGKWMGIAFRIQKEALGGQALYPHVLVKNCAVEFNFGQRAEPYCSVLPGFTFIQHLPLSERIRGTVGPKSKAECEILMMVGLPAAGKTTWAIKHAASNPSKKYNILGTNAIMDKMRVMGLRRQRNYAGRWDVLIQQATQCLNRLIQIAARKKRNYILDQTNVYGSAQRRKMRPFEGFQRKAIVICPTDEDLKDRTIKRTDEEGKDVPDHAVLEMKANFTLPDVGDFLDEVLFIELQREEADKLVRQYNEEGRKAGPPPEKRFDNRGGGGFRGRGGGGGFQRYENRGPPGGNRGGFQNRGGGSGGGGNYRGGFNRSGGGGYSQNRWGNNNRDNNNSNNRGSYNRAPQQQPPPQQPPPPQPPPQQPPPPPSYSPARNPPGASTYNKNSNIPGSSANTSTPTVSSYSPPQPSYSQPPYNQGGYSQGYTAPPPPPPPPPAYNYGSYGGYNPAPYTPPPPPTAQTYPQPSYNQYQQYAQQWNQYYQNQGQWPPYYGNYDYGSYSGNTQGGTSTQ [HNRNPUL1] | -0.152 | 46.9 | 49.2 | -0.0379 | 3.72 | 6.44
CTSD | 0.272 | 56.2 | 57 | -0.113 | 1.02 | -1.76
AKAP8 | -0.14 | 49 | 49.8 | 0.113 | 1.87 | 2.22
MDLMNGQASSVNIAATASEKSSSSESLSDKGSELKKSFDAVVFDVLKVTPEEYAGQITLMDVPVFKAIQPDELSSCGWNKKEKYSSAPNAVAFTRRFNHVSFWVVREILHAQTLKIRAEVLSHYIKTAKKLYELNNLHALMAVVSGLQSAPIFRLTKTWALLSRKDKTTFEKLEYVMSKEDNYKRLRDYISSLKMTPCIPYLGIYLSDLTYIDSAYPSTGSILENEQRSNLMNNILRIISDLQQSCEYDIPMLPHVQKYLNSVQYIEELQKFVEDDNYKLSLKIEPGTSTPRSAASREDLVGPEVGASPQSGRKSVAAEGALLPQTPPSPRNLIPHGHRKCHSLGYNFIHKMNTAEFKSATFPNAGPRHLLDDSVMEPHAPSRGQAESSTLSSGISIGSSDGSELSEETSWPAFERNRLYHSLGPVTRVARNGYRSHMKASSSAESEDLAVHLYPGAVTIQGVLRRKTLLKEGKKPTVASWTKYWAALCGTQLFYYAAKSLKATERKHFKSTSNKNVSVIGWMVMMADDPEHPDLFLLTDSEKGNSYKFQAGNRMNAMLWFKHLSAACQSNKQQVPTNLMTFE [RALGPS2] | 0.0658 | 51 | 50.5 | -0.165 | -0.455 | -0.819
MGKRGSRSQSQLLNTLTKKQKKHLRDFGEEHPFYDRVSRKEAKPQICQLSESSDSSDSESDSESEPQQVSGYHRLLATLKNVSEEEEEDEEEEEEEDSIVDDAEMNDEDGGSDVSVEEEMAAESTESPENVALSADPEGKEDGEEPPGTSQTSPEEFTDAKHESLFSLETNFLEEESGDNSSLKASQDPFLQHVNKELKEKAIQAVATNPKTTHELKWPILGQLFFSSKFQKLETFKPPKDIDLKSLHLQKPLESTWTKTNSQFLSGPQKSSSPFTPLQKELFLIMNSYRDLFYPERTALKNGEEIRHVYCLHVINHILKANAQVLGNNSRRRSQKFGVGDDDDFRDQGLTRPKVLIVVPFREAALRVVQLFISLLEGDSKKKIIVSNKKRFQGEYGSDPEERPPNLKRPEDYEAVFVGNIDDHFRIGVAILQRSIRLYAPFYSSDILIASPLGLRTIIGGEGEKKRDFDFLSSIELLIIDQADIYLMQNWEHVLHLMNHMNLLPLDSHGVDFSRVRMWSLNNWSKYYRQTLLFGALQDAQINSVFNKYCVNMQGQVAVRNVPMTGSISHVLVQLPHVFQRMEAENLASVIDARFNFFVNKILPQYRDAVMSHTLIYIPSYFDFVRLRNYFKKEELNFTHICEYTQKSGVSRARHFFLQGEKQFLLFTERFHFYKRYTIKGIRNLIFYELPTYPHFYSEICNMLRATNRGEEATWTCTVLYSKYDAQRLAAVVGVERAAQMLQSNKNVHLFITGEK [DIEXF] | -0.69 | 47.2 | 49.3 | 0.17 | 0.651 | 2.11
MAALLRRLLQRERPSAASGRPVGRREANLGTDAGVAVRVRFAPSPTGFLHLGGLRTALYNYIFAKKYQGSFILRLEDTDQTRVVPGAAENIEDMLEWAGIPPDESPRRGGPAGPYQQSQRLELYAQATEALLKTGAAYPCFCSPQRLELLKKEALRNHQTPRYDNRCRNMSQEQVAQKLAKDPKPAIRFRLEQVVPAFQDLVYGWNRHEVASVEGDPVIMKSDGFPTYHLACVVDDHHMGISHVLRGSEWLVSTAKHLLLYQALGWQPPHFAHLPLLLNRDGSKLSKRQGDVFLEHFAADGFLPDSLLDIITNCGSGFAENQMGRTLPELITQFNLTQVTCHSALLDLEKLPEFNRLHLQRLVSNESQRRQLVGKLQVLVEEAFGCQLQNRDVLNPVYVERILLLRQGHICRLQDLVSPVYSYLWTRPAVGRAQLDAISEKVDVIAKRVLGLLERSSMSLTQDMLNGELKKLSEGLEGTKYSNVMKLLRMALSGQQQGPPVAEMMLALGPKEVRERIQKVVSS [EARS2] | 0.363 | 49.2 | 49.5 | -0.0812 | -0.077 | 1.7
MSDNQSWNSSGSEEDPETESGPPVERCGVLSKWTNYIHGWQDRWVVLKNNALSYYKSEDETEYGCRGSICLSKAVITPHDFDECRFDISVNDSVWYLRAQDPDHRQQWIDAIEQHKTESGYGSESSLRRHGSMVSLVSGASGYSATSTSSFKKGHSLREKLAEMETFRDILCRQVDTLQKYFDACADAVSKDELQRDKVVEDDEDDFPTTRSDGDFLHSTNGNKEKLFPHVTPKGINGIDFKGEAITFKATTAGILATLSHCIELMVKREDSWQKRLDKETEKKRRTEEAYKNAMTELKKKSHFGGPDYEEGPNSLINEEEFFDAVEAALDRQDKIEEQSQSEKVRLHWPTSLPSGDAFSSVGTHRFVQKPYSRSSSMSSIDLVSASDDVHRFSSQVEEMVQNHMTYSLQDVGGDANWQLVVEEGEMKVYRREVEENGIVLDPLKATHAVKGVTGHEVCNYFWNVDVRNDWETTIENFHVVETLADNAIIIYQTHKRVWPASQRDVLYLSVIRKIPALTENDPETWIVCNFSVDHDSAPLNNRCVRAKINVAMICQTLVSPPEGNQEISRDNILCKITYVANVNPGGWAPASVLRAVAKREYPKFLKRFTSYVQEKTAGKPILF [COL4A3BP] | 0.0115 | 50.2 | 50.1 | -0.167 | -0.469 | -0.153
OCRL | -0.137 | 51.4 | 51.8 | -0.122 | -0.419 | -0.472
MLRTTRGPGLGPPLLQAALGLGRAGWHWPAGRAASGGRGRAWLQPTGRETGVQVYNSLTGRKEPLIVAHAEAASWYSCGPTVYDHAHLGHACSYVRFDIIRRILTKVFGCSIVMVMGITDVDDKIIKRANEMNISPASLASLYEEDFKQDMAALKVLPPTVYLRVTENIPQIISFIEGIIARGNAYSTAKGNVYFDLKSRGDKYGKLVGVVPGPVGEPADSDKRHASDFALWKAAKPQEVFWASPWGPGRPGWHIECSAIASMVFGSQLDIHSGGIDLAFPHHENEIAQCEVFHQCEQWGNYFLHSGHLHAKGKEEKMSKSLKNYITIKDFLKTFSPDVFRFFCLRSSYRSAIDYSDSAMLQAQQLLLGLGSFLEDARAYMKGQLACGSVREAMLWERLSSTKRAVKAALADDFDTPRVVDAILGLAHHGNGQLRASLKEPEGPRSPAVFGAIISYFEQFFETVGISLANQQYVSGDGSEATLHGVVDELVRFRQKVRQFALAMPEATGDARRQQLLERQPLLEACDTLRRGLTAHGINIKDRSSTTSTWELLDQRTKDQKSAG [CARS2] | 0.0252 | 55.4 | 54.1 | -0.0653 | 0.291 | -0.0596
